Test results reported in IntAct's records for PubMed 23871486.

B1: Cytotoxic and regulatory T-cell molecule (Homo sapiens), O95727-1 (parent)
chain: MWWRVLSLLAWFPLQEASLTNHTETITVEEGQTLTLKCVTSLRKNSSLQWLTPSGFTIFLNEYPALKNSKYQLLHHSANQLSITVPNVTLQDEGVYKCLHYSDSVSTKEVKVIVLATPFKPILEASVIRKQNGEEHVVLMCSTMRSKPPPQITWLLGNSMEVSGGTLHEFETDGKKCNTTSTLIIHTYGKNSTVDCIIRHRGLQGRKLVAPFRFEDLVTDEETASDALERNSLSSQDPQQPTSTVSVTEDSSTSEIDKEEKEQTTQDPDLTTEANPQYLGLARKKSGILLLTLVSFLIFILFIIVQLFIMKLRKAHVIWKKENEVSEHTLESYRSRSNNEETSSEEKNGQSSHPMRCMNYITKLYSEAKTKRKENVQHSKLEEKHIQVPESIV
partner: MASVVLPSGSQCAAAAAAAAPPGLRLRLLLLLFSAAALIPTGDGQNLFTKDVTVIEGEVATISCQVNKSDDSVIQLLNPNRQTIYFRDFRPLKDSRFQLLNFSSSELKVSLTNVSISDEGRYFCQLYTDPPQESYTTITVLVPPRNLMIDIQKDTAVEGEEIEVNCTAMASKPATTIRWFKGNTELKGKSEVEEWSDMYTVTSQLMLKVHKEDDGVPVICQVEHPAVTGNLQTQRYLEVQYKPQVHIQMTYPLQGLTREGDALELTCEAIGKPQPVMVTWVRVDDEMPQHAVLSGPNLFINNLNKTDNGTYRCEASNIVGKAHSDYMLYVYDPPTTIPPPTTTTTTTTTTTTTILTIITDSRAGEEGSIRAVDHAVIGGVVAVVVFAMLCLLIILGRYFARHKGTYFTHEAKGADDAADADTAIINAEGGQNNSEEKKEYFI

Variants of: B1
Settings: with cadm1_human CADM1, Q9BY67

Variant	effect of a mutation on the interaction
MWWRVLSLLAWFPLQEASLTNHTETITVEEGQTLTLKCVTSLRKNSSLQWLTPSGAAIFLNEYPALANSKYQLLHHSANQLSITVPNVTLQDEGVYKCLHASDSVSTKEVKVIVLATPFKPILEASVIRKQNGEEHVVLMCSTMRSKPPPQITWLLGNSMEVSGGTLHEFETDGKKCNTTSTLIIHTYGKNSTVDCIIRHRGLQGRKLVAPFRFEDLVTDEETASDALERNSLSSQDPQQPTSTVSVTEDSSTSEIDKEEKEQTTQDPDLTTEANPQYLGLARKKSGILLLTLVSFLIFILFIIVQLFIMKLRKAHVIWKKENEVSEHTLESYRSRSNNEETSSEEKNGQSSHPMRCMNYITKLYSEAKTKRKENVQHSKLEEKHIQVPESIV [F56A;T57A;K67A;Y101A]	decreasing interaction strength
MWWRVLSLLAWFPLQEASLTNHTETITVEEGQTLTLKCVTSLRKNSSLQWLTPSGFAIFLNEYPALKNSKYQLLHHSANQLSITVPNVTLQDEGVYKCLHYSDSVSTKEVKVIVLATPFKPILEASVIRKQNGEEHVVLMCSTMRSKPPPQITWLLGNSMEVSGGTLHEFETDGKKCNTTSTLIIHTYGKNSTVDCIIRHRGLQGRKLVAPFRFEDLVTDEETASDALERNSLSSQDPQQPTSTVSVTEDSSTSEIDKEEKEQTTQDPDLTTEANPQYLGLARKKSGILLLTLVSFLIFILFIIVQLFIMKLRKAHVIWKKENEVSEHTLESYRSRSNNEETSSEEKNGQSSHPMRCMNYITKLYSEAKTKRKENVQHSKLEEKHIQVPESIV [T57A]	decreasing interaction strength
MWWRVLSLLAWFPLQEASLTNHTETITVEEGQTLTLKCVTSLRKNSSLQWLTPSGATIFLNEYPALKNSKYQLLHHSANQLSITVPNVTLQDEGVYKCLHYSDSVSTKEVKVIVLATPFKPILEASVIRKQNGEEHVVLMCSTMRSKPPPQITWLLGNSMEVSGGTLHEFETDGKKCNTTSTLIIHTYGKNSTVDCIIRHRGLQGRKLVAPFRFEDLVTDEETASDALERNSLSSQDPQQPTSTVSVTEDSSTSEIDKEEKEQTTQDPDLTTEANPQYLGLARKKSGILLLTLVSFLIFILFIIVQLFIMKLRKAHVIWKKENEVSEHTLESYRSRSNNEETSSEEKNGQSSHPMRCMNYITKLYSEAKTKRKENVQHSKLEEKHIQVPESIV [F56A]	decreasing interaction strength
MWWRVLSLLAWFPLQEASLTNHTETITVEEGQTLTLKCVTSLRKNSSLQWLTPSGFTIFLNEYPALANSKYQLLHHSANQLSITVPNVTLQDEGVYKCLHYSDSVSTKEVKVIVLATPFKPILEASVIRKQNGEEHVVLMCSTMRSKPPPQITWLLGNSMEVSGGTLHEFETDGKKCNTTSTLIIHTYGKNSTVDCIIRHRGLQGRKLVAPFRFEDLVTDEETASDALERNSLSSQDPQQPTSTVSVTEDSSTSEIDKEEKEQTTQDPDLTTEANPQYLGLARKKSGILLLTLVSFLIFILFIIVQLFIMKLRKAHVIWKKENEVSEHTLESYRSRSNNEETSSEEKNGQSSHPMRCMNYITKLYSEAKTKRKENVQHSKLEEKHIQVPESIV [K67A]	decreasing interaction strength
MWWRVLSLLAWFPLQEASLTNHTETITVEEGQTLTLKCVTSLRKNSSLQWLTPSGFTIFLNEYPALKNSKYQLLHHSANQLSITVPNVTLQDEGVYKCLHASDSVSTKEVKVIVLATPFKPILEASVIRKQNGEEHVVLMCSTMRSKPPPQITWLLGNSMEVSGGTLHEFETDGKKCNTTSTLIIHTYGKNSTVDCIIRHRGLQGRKLVAPFRFEDLVTDEETASDALERNSLSSQDPQQPTSTVSVTEDSSTSEIDKEEKEQTTQDPDLTTEANPQYLGLARKKSGILLLTLVSFLIFILFIIVQLFIMKLRKAHVIWKKENEVSEHTLESYRSRSNNEETSSEEKNGQSSHPMRCMNYITKLYSEAKTKRKENVQHSKLEEKHIQVPESIV [Y101A]	decreasing interaction strength
